As a reminder, the stoichiometry N is the number of molecules, sites or subunits per partner or assembly.

The target in this test is LRIM1 (An. gambiae). The test is described as follows: non-reducing SDS-PAGE western blot. For orientation: Immunoblotting shows a protein as a band on a membrane.

The substance LRIM1 (natural protein) displayed a stoichiometry N of 2.

(Values after publication PMC4073527.)
